Molecular target: KIR3DL2CD3ε fusion protein on Jurkat reporter cells (UniProt P43630)
Assay: cell-based or functional assay

KIR3DL2CD3ε fusion protein on Jurkat reporter cells, sequence (P43630 other isoform, or with tags, fused parts or gaps limits assumed): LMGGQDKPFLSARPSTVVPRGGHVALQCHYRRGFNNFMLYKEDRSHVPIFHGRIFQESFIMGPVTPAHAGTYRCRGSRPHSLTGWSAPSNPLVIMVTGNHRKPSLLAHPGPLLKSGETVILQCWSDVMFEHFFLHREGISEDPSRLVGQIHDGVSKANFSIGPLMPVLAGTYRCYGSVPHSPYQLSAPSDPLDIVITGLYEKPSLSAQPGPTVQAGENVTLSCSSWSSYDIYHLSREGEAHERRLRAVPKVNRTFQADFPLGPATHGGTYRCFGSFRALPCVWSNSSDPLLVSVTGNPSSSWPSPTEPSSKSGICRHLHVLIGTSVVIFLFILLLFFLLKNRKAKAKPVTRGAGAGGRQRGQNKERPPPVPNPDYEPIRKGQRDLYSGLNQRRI

Substance “HLA-B27 on transfected LCL.LBL.721.221 cells (ligand)” has an IL-2 production by KIR3DL2CD3ε transduced Jurkat reporter cells (ELISA) of 6 fold.

From patent publication US20150232556A1
